Ends that are not written are not given here. Peptide text beside a SMILES is read from it. * marks the point of attachment. Biotin = O=C1N[C@H]2[C@H](CS[C@H]2CCCCC(=O)*)N1
How the values were obtained:
[1] = target: HMVEC (Homo sapiens, UniProt P11021); assay: VEGF-stimulated HMVEC migration (Boyden chamber); assay type: cell-based; conditions: for inhibition of migration of activated endothelial cells (in words): compared to rK5; for IC50: read-out: IC50 values, inhibition of VEGF stimulation HMVEC migration, 3 ng/ml VEGF, 4 hours at 37° C., 48 well Boyden chamber
Experimental: Endothelial cell migration assays: The effect of rK5 on endothelial cell migration was determined by two different methods. The first assay was performed in a 96 well plate with a cellulose membrane between the upper and lower chambers. HMVEC were starved of growth factors overnight, labeled with fluorescent calcein AM (50-100 nM), plated into a 96 well migration chamber (2.9×10^4/well) (Neuroprobe, Gaitherburg, Md.), and stimulated to migrate with VEGF (5 ng/mL). After 4 h, migrated cells were measured by fluorescence (Frevert C W, Wong V A, Goodman R B, Goodwin R, Martin T R. Rapid fluorescence-based measurement of neutrophil migration in vitro. J Immunol Methods. 1998 Apr. 1;213(1):41-52). In a second assay for cellular migration, a standard Boyden chamber was used (Polyerini, P. J., Bouck, N. P. & Rastinejad, F. Assay and purification of naturally occurring inhibitor of angiogenesis. Meth. Enzymol. 198, 440-450 (1991)). HMVEC cells were starved overnight in DME containing 0.1% bovine serum albumin (BSA) and harvested by scraping and resuspended in DME with 0.1% BSA at 1.5×10^6 cells per ml. Cells were added to the bottom of a 48-well, Boyden chamber. The chamber was assembled and inverted, and cells were allowed to attach for 2 hours at 37° C. to polycarbonate chemotaxis membranes (5 μm pore size) that had been soaked in 0.1% gelatin overnight and dried. The chamber was re-inverted, test substances, including activators were added to the wells of the upper chamber and the apparatus was incubated for 4 hours at 37° C. Growth factors were used, where indicated, at concentrations determined in preliminary experiments to give equivalent migration responses of about 100 cells migrated/high powered field (400×). […] Membranes were recovered, fixed and stained and the number of cells that had migrated to the upper chamber per 10 high power fields counted. Background migration to DME+0.1% BSA was subtracted and the data reported as the number of cells migrated per 10 high power fields (400×) or, when results from multiple experiments were combined, as the percent inhibition of migration compared to the positive growth factor control (Polyerini, P. J., Bouck, N. P. & Rastinejad, F. Assay and purification of naturally occurring inhibitor of angiogenesis. Meth. Enzymol. 198, 440-450 (1991)).

[2] = target: T1, GRP78 (bovine brain) (Bos taurus, UniProt Q0VCX2); assay: Ultracentrifugation binding of I125rK5(dog) with GRP78; conditions: 1 nM I125rK5(dog) + 1.5 nM GRP78; peptides 100 nM, rK5 1 nM
T1 construct: from tissue; host or cells: bovine brain
Experimental: Ultra centrifugation with 50,000 MW cut off filters was used with iodinated recombinant dog K5 (I^125rKS(dog)) and GRP78 (bovine brain). The GRP78 and I^125rK5 (dog) were incubated for 1 hour at room temperature. The solution was then transferred to ultracentrifuges and spun at 10,000×g for 2 min. The top chamber contained GRP78 (mw 78,000) and I^125rK5 (dog) that bound. The top and bottom solutions were counted for I125. Column A: 1 nM I^125rK5(dog). Column B: 1 nM I^125rK5 (dog)+1.5 nM GRP78. Column C: 1 nM I^125rK5(dog)+1.5 nM GRP78+100 nM N-terminal K5 peptide, LLPDVETPSEED. Column D: 1 nM I^125rK5(dog)+1.5 nM GRP78±100 nM active site K5 peptide PRKLYDY. Column E: 1 nM I^125rK5(dog)+1.5 nM GRP78+1 nM rK5 (unlabeled). The GRP78 bound to the labeled rK5 causing its retention on the top of the filter.

[3] = system: HMVECs; assay: Competition of 3HK5 binding to endothelial cells; set-up: species or system human; conditions: 2 nM 3HK5; rK5(K82A) up to 500 nM
Experimental: Each K5 peptide or a N-terminal antibody to GRP78 was added to HMVECs at various concentrations for 1 hour at room temperature. Cells were washed and the amount of ^3HK5 bound was counted.
Binding of human ^125IrK5 to Endothelial Cells: Tritium-labeled rK5 was added to monolayers of 50,000 HMVEC cells that were either starved or stimulated for 16 hours by 15 ng/ml bFGF and 5 ng/ml VEGF in 96 well plates. The number of counts remaining bound to the cells after extensive washing determined total amount of rK5 bound (Dudani A K, Ganz P R. Endothelial cell surface actin serves as a binding site for plasminogen, tissue plasminogen activator and lipoprotein(a). Br J Haematol. 1996 October; 95(1): 168-78). Binding of ^125IK5 (dog) to Endothelial Cells and rK5 to Recombinant GRP78: The same methods as described above for the expression and purification of human K5 were used to express dog rK5 in E. coli. ^125IK5 (dog) was added to the wells and incubated at room temperature for 1 hour. After 1 hour the cells were washed and lysed with M-Per (Pierce, Racine, Wis.) and the amount of ^125IK5 (dog) bound was counted. Scatchard plot analysis was performed using Prism (GraphPad Software, Inc., San Diego, Calif.) software. Competition binding against 5 nM ^125IK5 (dog) was tested using a monoclonal antibody against GRP78 (N-20, Santa Cruz, Calif.) or a monoclonal antibody against K5 (Green Mountain Antibodies, Burlington, Vt.). The antibodies were added to HMVECs at various concentrations for 1 hour at room temperature. Cells were washed and the amount of bound ^125IK5 (dog) bound was counted. Competition binding was also tested against 2 nM 3HK5. K5 peptides or a c-terminal antibody to GRP78 (A-129, Santa Cruz, Calif.) were added to HMVECs at various concentrations for 1 hour at room temperature. Cells were washed, lysed and the amount of ^3HK5 bound was estimated by scintillation counting.

[4] = system: EAHY cell surface proteins (~75 kDa and ~95 kDa); assay: S-tag-K5 affinity pull-down of biotinylated EAHY surface proteins; assay type: binding; conditions: 100 nM S-tag-K5; 1 μM peptides, 10 μM cold rK5
Experimental: The second method used to identify cell surface rK5 binding proteins was described previously (Zhang, J. C., et al, supra). Surface proteins on 4×10^6 EaHy cells were labeled with NHS-biotin. The cells were washed and lysed (M-Per, Pierce). Cell lysates were mixed with S-tag K5 for 1 hour at room temperature. S-tag K5 bound proteins were precipitated with S-protein agarose (Pierce). Bound proteins were eluted with excess rK5 or with excess PRKLYDY (SEQ ID NO:1) peptide. Eluted proteins were visualized with avidin-HRP and a chemiluminescent substrate. Mass spectroscopic analysis was used to identify the major protein bands.
In particular, surface proteins on 1×10^6 EAHY cells were labeled with NHS-biotin. The cells were washed 3× with PBS and lysed with M-pur. Cell lysates were mixed with (A) 100 nM S-tag-K5, (B) 100 nM S-tag-K5 plus 1 μM PRKLYDY, (C) 100 nM S-tag-K5 plus 10 μM cold rK5 and (D) 100 nM S-tag-K5 and N-terminal K5 peptide at 1 μM for 1 hour at room temperature. The K5 binding proteins were precipitated with S-protein-agarose. Bound proteins were eluted with 50 mM glycine buffer at pH 3.0 and run for PAGE analysis. Surface proteins (biotinylated) that bind K5 were visualized with avidin-HPR and a chemiluminescent substrate.

[5] = target: GRP78 on the surface of human cells (EAHY, HMVEC, HT1080) (human, UniProt P11021 19-654); assay: cell-based or functional assay
GRP78 on the surface of human cells (EAHY, HMVEC, HT1080), sequence (P11021 19-654): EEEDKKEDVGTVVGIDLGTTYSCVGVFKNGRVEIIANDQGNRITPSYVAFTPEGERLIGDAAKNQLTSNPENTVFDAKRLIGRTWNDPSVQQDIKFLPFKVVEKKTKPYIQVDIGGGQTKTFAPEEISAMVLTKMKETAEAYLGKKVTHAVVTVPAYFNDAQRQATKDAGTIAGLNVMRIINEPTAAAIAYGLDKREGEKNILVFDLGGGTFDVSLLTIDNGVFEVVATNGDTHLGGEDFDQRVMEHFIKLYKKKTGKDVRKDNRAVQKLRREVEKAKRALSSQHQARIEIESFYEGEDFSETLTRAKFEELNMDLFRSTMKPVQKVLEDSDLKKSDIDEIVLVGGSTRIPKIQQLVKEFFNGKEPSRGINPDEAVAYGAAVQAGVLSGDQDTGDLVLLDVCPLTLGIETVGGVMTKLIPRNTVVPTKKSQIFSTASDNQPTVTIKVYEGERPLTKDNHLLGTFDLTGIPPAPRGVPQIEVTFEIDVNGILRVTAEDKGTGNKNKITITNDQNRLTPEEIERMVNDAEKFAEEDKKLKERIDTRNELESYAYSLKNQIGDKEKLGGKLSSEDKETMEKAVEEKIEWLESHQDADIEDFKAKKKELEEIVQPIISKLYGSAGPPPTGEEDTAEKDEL

HMVEC, sequence (P11021 19-654): as above
T1 sequence (Q0VCX2 20-655): as the sequence (P11021 19-654) above, with I114V, G626S, D629E, T630A, E632D counted along it

**Q.** How did the “inhibition of migration of activated endothelial cells (in words)” value (from here on “inhibition of migration … (in words)”) [1] turn out when Ac-KLYDY-NH2 [Ac-KLYDY-NH2] was run?
**A.** Its value is “equally potent compared to rK5”.

**Q.** Which IC50 [1] does the source give for Ac-MFGNGKGYRGKRATTVTGTP-NH2 here?
**A.** Its IC50 is over 1000 nM.

**Q.** For `CC(C)C[C@H](NC(=O)[C@H](CCCCN)NC(=O)[C@H](CCCNC(=N)N)NC(=O)[C@@H]1CCCN1C(=O)CCCC[C@@H]1SC[C@@H]2NC(=O)N[C@@H]21)C(=O)N[C@@H](Cc1ccc(O)cc1)C(=O)N[C@@H](CC(=O)O)C(=O)N[C@@H](Cc1ccc(O)cc1)C(=O)O` [Biotin-PRKLYDY] (Biotin-PRKLYDY-OH), which “inhibition of migration … (in words)” value [1] is on record?
**A.** The value was “similarly active”.

**Q.** For “N-term-S-tag-Kringle 5: S-protein tagged rK5 used as probe for isolation of the cell surface receptor”, which “inhibition of migration … (in words)” value [1] is on record?
**A.** Its value is “similarly active”.

**Q.** How did the IC50 [1] turn out when `CC(=O)N[C@@H](CC(=O)O)C(=O)N[C@H](C(=O)N1CCC[C@H]1C(=O)N[C@@H](CCC(N)=O)C(N)=O)C(C)C` [Ac-DVPQ-NH2] (Ac-DVPQ-NH2) was run?
**A.** The IC50 was over 1000 nM.

**Q.** For “Ac-VLLPDVETPSEED-NH2 [Ac-VLLPDVETPSEED-NH2]”, which IC50 [1] is on record?
**A.** Its IC50 is over 1000 nM.

**Q.** What does the source list for PRKLYDY (listed as Homo sapiens)?
**A.** inhibition of migration of activated endothelial cells (in words) [1]: equally potent compared to rK5; inhibition of I125rK5(dog) binding to GRP78 [2]: inhibited; blocking of 3HK5 binding to endothelial cells [3]: blocked; competition of protein binding to the S-tag K5 column [4]: competed

**Q.** Which IC50 [1] does the source give for `CC(=O)N[C@@H](CC(C)C)C(=O)N[C@@H](Cc1ccc(O)cc1)C(=O)N[C@@H](CC(=O)O)C(=O)N[C@@H](Cc1ccc(O)cc1)C(N)=O` [Ac-LYDY-NH2] (Ac-LYDY-NH2) here?
**A.** The IC50 was over 1000 nM.

**Q.** Which “inhibition of I125rK5(dog) binding to GRP78” value [2] does the source give for LLPDVETPSEED (listed as Homo sapiens) here?
**A.** The value was “not”.

**Q.** What about the “blocking of 3HK5 binding to endothelial cells” value [3] of the same molecule?
**A.** Its value is “not”.

**Q.** What about the “competition of protein binding to the S-tag K5 column” value [4] of the same molecule?
**A.** Its value is “did not inhibit”.

**Q.** Ac-QDWAAQEPHRHSIFTPETNPRAGLEKNY-NH2 was tested. Which IC50 [1] did it give?
**A.** The IC50 was over 1000 nM.

**Q.** Which “inhibition of migration … (in words)” value [1] does the source give for KLYD (listed as Homo sapiens) here?
**A.** The value was “equally potent compared to rK5”.

B1: Ac-RNPDGDVGGPW-NH2 (peptide)
peptide: Ac-RNPDGDVGGPW-NH2
**Q.** For B1, which “IC50, inhibition of VEGF stimulated HMVEC migration” value (“IC50, inhibition” for short) [5] is on record?
**A.** The value was 0.5 nM.

B2: Ac-LYDY-NH2 (peptide)
peptide: Ac-LYDY-NH2
**Q.** With B2 as the molecule, how does the “IC50, inhibition” value [5] read?
**A.** Its value is over 1000 nM.

B3: Ac-RKLYDY-NH2 (peptide)
peptide: Ac-RKLYDY-NH2
**Q.** B3 was tested. Which “IC50, inhibition” value [5] did it give?
**A.** Its value is 0.12 nM.

B4: N-terminally biotinylated PRKLYDY peptide (peptide)
peptide: Biotin-PRKLYDY
**Q.** For B4, which “IC50, inhibition” value [5] is on record?
**A.** The value was 0.23 nM.

B5: N-term-S-tag-Kringle 5 (ligand, human, UniProt P00747 481-560, looked up, not shown: small tags and cut ends)
chain: CMFGNGKGYRGKRATTVTGTPCQDWAAQEPHRHSIFTPETNPRAGLEKNYCRNPDGDVGGPWCYTTNPRKLYDYCDVPQC
**Q.** For B5, which “IC50, inhibition” value [5] is on record?
**A.** Its value is 0.2 nM.

B6: Ac-KLYDY-NH2 (peptide)
peptide: Ac-KLYDY-NH2
**Q.** Which “IC50, inhibition” value [5] does the source give for B6 here?
**A.** Its value is 0.1 nM.

B7: Ac-MFGNGKGYRGKRATTVTGTP-NH2 (peptide)
peptide: Ac-MFGNGKGYRGKRATTVTGTP-NH2
**Q.** Which “IC50, inhibition” value [5] does the source give for B7 here?
**A.** The value was over 1000 nM.

B8: Ac-YTTNPRKLYDY-HN2 (peptide)
peptide: Ac-YTTNPRKLYDY-NH2
**Q.** With B8 as the molecule, how does the “IC50, inhibition” value [5] read?
**A.** The value was 0.2 nM.

B9: Ac-DVPQ-NH2 (peptide)
peptide: Ac-DVPQ-NH2
**Q.** B9 was tested. Which “IC50, inhibition” value [5] did it give?
**A.** The value was over 1000 nM.

B10: Ac-VLLPDVETPSEED-NH2 (peptide)
peptide: Ac-VLLPDVETPSEED-NH2
**Q.** With B10 as the molecule, how does the “IC50, inhibition” value [5] read?
**A.** Its value is over 1000 nM.

B11: Ac-QDWAAQEPHRHSIFTPETNPRAGLEKNY-NH2 (peptide)
peptide: Ac-QDWAAQEPHRHSIFTPETNPRAGLEKNY-NH2
**Q.** B11 was tested. Which “IC50, inhibition” value [5] did it give?
**A.** The value was over 1000 nM.

— US20050053993A1, “Uses of an endothelial cell receptor” (priority 2002, published 2005)
